Measurements from paper PMC3432753.

Biological target: Recombinant human endostatin (human) (UniProt P39060)
Test: SPR

Chain of UniProt P39060 (P39060 1572-1754): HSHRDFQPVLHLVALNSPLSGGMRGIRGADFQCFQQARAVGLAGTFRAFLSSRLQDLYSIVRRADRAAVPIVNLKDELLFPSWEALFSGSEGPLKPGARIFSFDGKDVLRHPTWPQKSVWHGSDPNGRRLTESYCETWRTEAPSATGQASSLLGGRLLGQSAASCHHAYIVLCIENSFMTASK

Kd: 9 nM
Substance: α3β1 integrin (Millipore) (from UniProt P26006 33-1051; P05556 21-728) (complex)
